Laboratory results from the DeepSol protein solubility set.

Assay: soluble on expression in E. coli; label from the status in PepcDB or PDB records

Sequence | soluble on expression in E. coli
MSLKIKICGLSTKEAVDTAVESGVTHLGFILSPSKRQVAPEKILQITNDVPKTVKKVGVFVDEPIDFVKKAIQVAQLDLVQLHGNEDMNYINQLDISVIKAIRPDQEFKEYEDVILLFDSPQAGSGQAFDWDSLVTSGLKNKFFIAGGLNPENVAAAIQHFPNAYGVDVSSGVETDGIKNLTKIKNFVQNASLASSKQLFIEFLRITKKLNENKIIPYLMGSLAVEQIINFPTNPDDIDIQLKTSDFENFEQLTSLMEKLGYQLIDLHEHKFEKASIHVGFASVETLKNYAGVDYLTIQQERMENGEKYHLPNVEQSLKIYEAAKRDEWRGGKQKDSFIFDELIKEQKRNDNEGHHHHHH | soluble
RLSDVLSADVYQQAHSPLSLALGVDIGGHPMVVDLAKMPHLLVAGTTGSGKSVGINAMILSILFKASPEQVRLIMVDPKMLELSVYDGIPHLLTPVVTDMKEAASALRWCVEEMERRYRLMAALGVRNLAGYNTKITEAAANGQPLLNPLWKPVDSMDETAPELQALPYVVVVIDELADMMMVVGKKVEQLIARIAQKARAAGIHMILATQRPSV | not soluble
MTRHQTHLPFHIVQEGNSIDKPPYSYVALIAMAIDASPDKRMTLNQIYKFIEAKFPYYRDADAKRKQGWQNSIRHNLSLNDCFVKKARDGQSCANDRKGNYWQMVADNAPQFDNGNFKRRRVKRLGIGKMGYANTTETTETGTILQQQLPFFNGLKWPQNIQTMDPFQFFKFQYPNSITDSANTSQINNSSSSSSSFDTSIYTSAFPIPTSHFDTNLVAPSQPPPVVSDVEVVPSDTVKEEVLVDMKPLIPGISSTTFLTSLQMTDPRSIEQQQLLSTASNMYPNAFMPPYTNWSCQPTTTFTGLSFDDPSLYGYGQQFPASS | not soluble
MGSDKIHHHHHHMTPSMVEDVRIEQLWIPDSLDGPDSADFLAAVEVGRKVRMQTWGSDDLAYTPLEKLLEFADPYERQVILVARVEGNIVGTVDIALPLADNLDLAEFTLDILPEFQRQGVGRQLLEAAEQFARAEGRSMILIDTNHPGVSLSSSADDQLVPGSGLGFVPMGSREVEFARKTGYTLQHIEQFSSCLLPLDTKLVAELSDEAEQANAGRYRLHHWTDRCPDIWLEGVAALENQAGGDTEPSTRTDEQMVFDGAMIRKAEDATIAQGRRTVVTAVEHIATGTLVGLTTISVLSQRQDVVFQDDTVVMQEHRGNKLGLLIKVANMVRLTEQFPDARVIYTWNAPENRYLLKVNQQLGFNTAGVTGIWQKDLPDLGPSSS | not soluble
MGSDKIHHHHHHMNNKYKNSYIVKEKELVSLSVYNVGFQSCDSLYQWGPGIRDHYLIHYIISGKGRYTVNGSVHTLTPGDAFLVYPNTEVIYQADAQDPWEYTWVGFTGSDAATILRATDFTKAHPYIHSVSNGNEIKRQLMHIYDARGTEFENALEMTGRLYTTLALFVSAATSKPPQNSANSYVQKGIEYISANYSYPITVEDIASYIGLSRSHLFRSFQSILGVSPKEYLTDFRIKQACYLLKHSSLSITAIAGSIGFDNSLYFSKTFHKIKGLSPKEYRSKYKKAQE | not soluble
MSDLSAQLSAFKNKIKSGPSVIVPRKATFTQSPSSPLSSSTTTTTSKNDANVKKRSTTDSVTRVLKKQKANMGEMTGSHLSTQLHLAVEYIKEHDQPISVEKLQNYLSFDISHTLLPLLNEIDRVKYDESKGTLEYVSLHNIRSSDDLLEFLRRQTTFKGTSVKELKDGWAGCVAAIDELESQGKILVLRNKKENAPRLVWANNGGELGYIDTEFKDMWDQVKLPEPDVLYQKLLDQGLKPTGADPNLIKKQPQQKEKKQKKARRGKITNTHMKGILKDYSQLV | soluble
MLNNAMSVVILAAGKGTRMYSDLPKVLHTLAGKAMVQHVIDAANELGAAHVHLVYGHGGDLLKQALKDDNLNWVLQAEQLGTGHAMQQAAPFFADDEDILMLYGDVPLISVETLQRLRDAKPQGGIGLLTVKLDDPTGYGRITRENGKVTGIVEHKDATDEQRQIQEINTGILIANGADMKRWLAKLTNNNAQGEYYITDIIALAYQEGREIVAVHPQRLSEVEGVNNRLQLSRLERVYQSEQAEKLLLAGVMLRDPARFDLRGTLTHGRDVEIDTNVIIEGNVTLGHRVKIGTGCVIKNSVIGDDCEISPYTVVEDANLAAACTIGPFARLRPGAELLEGAHVGNFVEMKKARLGKGSKAGHLTYLGDAEIGDNVNIGAGTITCNYDGANKFKTIIGDDVFVGSDTQLVAPVTVGKGATIAAGTTVTRNVGENALAISRVPQTQKEGWRRPVKKK | soluble
